Reference: patent US20150368338A1 (Janssen / Centocor, published 2015)
Changes are numbered by the printed parent chain. Blank lines part the entries; values can stand above or below the binder they belong to.

How the values were obtained:
Assay in all cases: ProteOn SPR, cell supernatant;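 also: each binding measurement used just a single antigen concentration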
[1] = biological target: T1, IFN-αG (human, UniProt P01569 24-189)
T1 construct: Recombinant, HEK293; also called IFN-α5

[2] = biological target: T2, IFN-αWA (human, UniProt P05015 24-189)
T2 construct: Recombinant, HEK293; also called IFN-α16

[3] = biological target: T3, human IFN-ω (human, UniProt P05000 24-195)
T3 construct: Recombinant, HEK293; also called interferon omega

[4] = biological target: T4, IFN-α4a (human, UniProt P05014 24-189)
T4 construct: Recombinant, HEK293; also called IFN-αM1

[5] = biological target: T5, IFN-αC (human, UniProt P01566 24-189)
T5 construct: Recombinant, HEK293; also called IFN-α10

[6] = biological target: T6, IFN-αF (human, UniProt P01568 24-189)
T6 construct: Recombinant, HEK293; also called IFN-α21
T6 chain: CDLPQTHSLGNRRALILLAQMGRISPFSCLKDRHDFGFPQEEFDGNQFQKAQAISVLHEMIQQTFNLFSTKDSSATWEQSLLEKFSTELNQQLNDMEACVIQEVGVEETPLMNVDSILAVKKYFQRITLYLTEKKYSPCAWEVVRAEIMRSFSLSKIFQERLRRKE

[7] = biological target: T7, IFN-αJ1 (human, UniProt P01567 24-189)
T7 construct: Recombinant, HEK293; also called IFN-α7

B1: IFWM3377 (antibody, IgG1, V domains shown)
VH: EVQLVQSGAEVKKPGESLKISCKGSGYSFTSYWIGWVRQMPGKGLEWMGIIDPSDSDTAYSPSFQGQVTISADKSISTAYLQWSSLKASDTAMYYCARHPGLNWAPDFDYWGQGTLVTVSS
VL: DIQMTQSPSSLSASVGDRVTITCRASQSIRNTNLNWYQQKPGKAPKLLIHWASSLQSGVPSRFSGSGSGTDFTLTISSLQPEDFATYYCQQGYDTPFTFGQGTKVEIK
notes: mAb; IgG1/kappa said of the parent and of selected mAbs; also called IFWB3112
- Kd [1]: 0.038 nM
- Kd [2]: 0.12 nM
- Kd [3]: 0.027 nM
- Kd [4]: 0.193 nM
- Kd [5]: 0.044 nM
- Kd [6]: 0.051 nM
- Kd [7]: 0.192 nM

B2: IFWM3413 (antibody, IgG1, V domains shown)
VH: B1 VH with A59R, N103A
VL: DIQMTQSPSSLSASVGDRVTITCRASQSINYLNWYQQKPGKAPKLLIYGASSLQSGVPSRFSGSGSGTDFTLTISSLQPEDFATYYCQQSHDWPITFGQGTKVEIK
notes: mAb; IgG1/kappa said of the parent and of selected mAbs; also called IFWB3148
- Kd [1]: 0.044 nM
- Kd [2]: 0.085 nM
- Kd [3]: 0.047 nM
- Kd [4]: 0.206 nM
- Kd [5]: 0.037 nM
- Kd [6]: 0.033 nM
- Kd [7]: 0.15 nM

B4: IFWM3378 (antibody, IgG1, V domains shown)
VH: B1 VH
VL: B1 VL with R30A, T32N, N33D, G92D, T95W, F97L
notes: mAb; IgG1/kappa said of the parent and of selected mAbs; also called IFWB3113
- Kd [1]: 0.15 nM
- Kd [2]: 0.248 nM
- Kd [3]: 0.075 nM
- Kd [4]: 0.533 nM
- Kd [5]: 0.172 nM
- Kd [6]: 0.168 nM
- Kd [7]: 0.496 nM

B5: IFWM3406 (antibody, IgG1, V domains shown)
VH: B1 VH with A59R, N103A
VL: B2 VL with Y31N, G49W, S90G, H91Y, W93T, I95F
notes: mAb; IgG1/kappa said of the parent and of selected mAbs; also called IFWB3141
- Kd [1]: 0.037 nM
- Kd [2]: 0.063 nM
- Kd [3]: 0.078 nM
- Kd [4]: 0.135 nM
- Kd [5]: 0.037 nM
- Kd [6]: 0.037 nM
- Kd [7]: 0.119 nM

B6: IFWM3407 (antibody, IgG1, V domains shown)
VH: B1 VH with A59R, N103A
VL: B1 VL with T32N
notes: mAb; IgG1/kappa said of the parent and of selected mAbs; also called IFWB3142
- Kd [1]: 0.027 nM
- Kd [2]: 0.06 nM
- Kd [3]: 0.017 nM
- Kd [4]: 0.128 nM
- Kd [5]: 0.032 nM
- Kd [6]: 0.033 nM
- Kd [7]: 0.058 nM

B7: IFWM3409 (antibody, IgG1, V domains shown)
VH: B1 VH with A59R, N103A
VL: B1 VL with R30D, T32S, N33Y, H50Y, W51G, Y93W, T95W, F97L
notes: mAb; IgG1/kappa said of the parent and of selected mAbs; also called IFWB3144
- Kd [1]: 0.005 nM
- Kd [2]: 0.025 nM
- Kd [3]: 0.014 nM
- Kd [4]: 0.058 nM
- Kd [5]: 0.011 nM
- Kd [6]: 0.009 nM
- Kd [7]: 0.041 nM

Other lines, results leading:

- Kd [1]: 0.035 nM
- Kd [2]: 0.087 nM
- Kd [3]: 0.028 nM
- Kd [4]: 0.101 nM
- Kd [5]: 0.023 nM
- Kd [6]: 0.037 nM
- Kd [7]: 0.151 nM
B3: IFWM3411 (antibody, IgG1, V domains shown)
VH: B1 VH with A59R, N103A
VL: B1 VL with R30D, T32N, H50Y, W51A, T95W, F97L
notes: mAb; IgG1/kappa said of the parent and of selected mAbs; also called IFWB3146

- Kd [1]: 0.033 nM
- Kd [2]: 0.07 nM
- Kd [3]: 0.058 nM
- Kd [4]: 0.193 nM
- Kd [5]: 0.068 nM
- Kd [6]: 0.101 nM
- Kd [7]: 0.174 nM
B8: IFWM3414 (antibody, IgG1, V domains shown)
VH: B1 VH with A59R, N103A
VL: B1 VL with T32N, N33Y, H50Y, W51A, F97L
notes: mAb; IgG1/kappa said of the parent and of selected mAbs; also called IFWB3149

- Kd [1]: 0.03 nM
- Kd [2]: 0.059 nM
- Kd [3]: 0.029 nM
- Kd [4]: 0.1 nM
- Kd [5]: 0.031 nM
- Kd [6]: 0.039 nM
- Kd [7]: 0.07 nM
B9: IFWM3417 (antibody, IgG1, V domains shown)
VH: B1 VH with A59R, N103A
VL: B1 VL with R30A, T32N, N33D, G92D, T95W, F97L
notes: mAb; IgG1/kappa said of the parent and of selected mAbs; also called IFWB3152

- Kd [1]: 0.026 nM
- Kd [2]: 0.044 nM
- Kd [3]: 0.018 nM
- Kd [4]: 0.069 nM
- Kd [5]: 0.019 nM
- Kd [6]: 0.026 nM
- Kd [7]: 0.051 nM
B10: IFWM3415 (antibody, IgG1, V domains shown)
VH: B1 VH with A59R, N103A
VL: B1 VL with R30S, T32S, G92W, T95H, F97L
notes: mAb; IgG1/kappa said of the parent and of selected mAbs; also called IFWB3150
